Source: the RNAGym collection of RNA variant scans (doi:10.1073/pnas.2313332121)

B1: TPR t1 (parent)
chain: GACCAAUCUGCCCUCAGAGCUCGAGAACAUCUUCGGAUGCAGAGGAGGCAGGCUUCGGUGGCGCGAUAGCGCCAACGUCCUCAACCUCCAAUGCAUCCCACCACAUGAUGAUGCCUGAAGAGCCUUGGUUUUUUG

Variants of: B1
Assay: polymerase ribozyme fitness, log enrichment relative to wild type (log ratio); higher = more active; in vitro selection for triplet polymerase activity
Method in brief: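 To select mutant libraries of each subunit of a heterodimeric triplet polymerase ribozyme, built by PCR and transcribed, each was annealed with a biotinylated primer, partner subunit and triplets, then incubated frozen at −7 °C. Extended constructs were gel-excised, captured on streptavidin beads and amplified by RT-PCR, in one round carried out in triplicate. Illumina sequencing of input and output libraries kept genotypes with ≥10 input reads and ≥1 read per output. Fitness is the base-2 logarithm of genotype enrichment relative to wild-type enrichment, from inverse-variance-weighted replicate averages.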

Point of comparison: G51C G61U A74C C114A G117A, “polymerase ribozyme fitness (log ratio)” value -7.43. Against it:
- A50G A75U C80U U81A C114U U133C — higher, -4.62
- A50G A105C — higher, -2.43
- A50G C56G A103C C115G — higher, -5.53
- A50G C64U — higher, 0.0869
- A50G C64U A84U — higher, -0.379
- A50G C73A U106G — higher, -1.39
- A50G C79G U87G — higher, -0.314
- A50G C80G A83G G120C — higher, -6.33
- A50G C82A G120U — higher, -0.452
- A50G C85G — higher, -0.79
- A50G C89A — higher, -1.48
- A50G C123A — higher, 0.295
- A50G G51A — higher, -1.11
- A50G G51U C89A C124U — higher, -4.23
- A50G G52A — higher, 0.186
- A50G G52C G71U C79A G110U — higher, -4.97
- A50G G57U C79A C115A — higher, -1.84
- A50G G63U A66G U130A — higher, -4.03
- A50G G63U C101G G120C U130G — higher, -3.55
- A50G G69U C86G — higher, -0.754
- A50G G71A — higher, -1.41
- A50G G93C U109A G117C — higher, -6.26
- A50G G110U — higher, -0.639
- A50G U54G A95C — higher, -1.88
- A50G U106G U116G — higher, -3.36
- A50G U116A — higher, -3.15
- A50U A100C A111G — higher, -2.38
- A50U A108G — higher, -3.01
- A50U A119U — higher, -1.31
- A50U C53A U55C C73U — higher, -0.723
- A50U C53U A83G A84C C89G C115U — higher, -5.92
- A50U C53U C64G A111U C124U — lower, -8.17
- A50U C56G C70U U78C — higher, -5.64
- A50U C56U — higher, -0.861
- A50U C56U A83C — higher, -1.21
- A50U C56U C64U U78C C85A U109A — higher, -6.76
- A50U C62U C70G G117U G120A — higher, -6.48
- A50U C64U C72A C79A C101A — higher, -5.1
- A50U C70G — higher, -4.57
- A50U C70G A84C C115A — higher, -4.54
- A50U C72U C73G G122A C124U — higher, -0.982
- A50U C72U U106C — higher, -0.84
- A50U C76G — higher, -1.31
- A50U C82U A119U — higher, -2.14
- A50U C85U G120C U130A — higher, -0.66
- A50U C86A A118U — higher, -1.06
- A50U C104U — higher, -0.896
- A50U C123G U131G — higher, 0.128
- A50U C124A — higher, 0.575
- A50U G51A C64U C82A A119G — higher, -0.277
- A50U G51A U87G U106A — higher, -2.51
- A50U G57C G60C C85G G113A — higher, -2.27
- A50U G57U G135A — higher, -2.6
- A50U G60U G117U — higher, -4.36
- A50U G61C G113U — higher, -5.56
- A50U G61U G110A G127A — higher, -3.84
- A50U G63C — higher, -1.63
- A50U G69A U81A A100C — higher, -4.08
- A50U G71U — higher, -1.94
- A50U G71U G127A — higher, -2.67
- A50U G77A C97U U106C — higher, -2.11
- A50U G110C — higher, -4.17
- A50U G113C — higher, -3.07
- A50U G120C — higher, 0.234
- A50U U55C U92G A118G — higher, -5.06
- A50U U59A G60C C80G C88U C123U — higher, -1.82
- A50U U112A — higher, -0.102
- A50U U131A — higher, -0.622
- G51A A66U — higher, -5.73
- G51A A68C C70G C102U G110A — higher, -5.98
- G51A A68G C123G — higher, -4.37
- G51A A74C — higher, -4.63
- G51A A84G A108C U112G — lower, -8.09
- G51A A95C — higher, -3.42
- G51A C62U C124U — higher, -1.17
- G51A C64U A105G C115G — lower, -8.49
- G51A C70G — higher, -6.9
- G51A C72U C82U A83G C94U U126A — higher, -2.93
- G51A C82A — higher, -4.73
- G51A C124U — higher, -1.14
- G51A G52A C101U — higher, -3.92
- G51A G57C U59C U96G U106A A118G — higher, -5.28
- G51A G60U — higher, -1.77
- G51A G117C — higher, -5.64
- G51A G120U — higher, -2.59
- G51A G122A G135U — higher, -4.44
- G51A G128A — higher, -5.75
- G51A U55G A66U U112A — higher, -6.46
- G51A U96G — higher, -3.85
- G51C A111G — higher, -4.71
- G51C C53U C56U C89G U112G — higher, -5.96
- G51C C56A G93A — higher, -6.3
- G51C C56U G110A — higher, -5.23
- G51C C73G — higher, -4.22
- G51C C79U — higher, -3.54
- G51C G52C — higher, -2.79
- G51C G60C — higher, -4.64
- G51C G120C — higher, -2.56
- G51C U78A U106A — higher, -4.81
- G51C U78C — higher, -4.89
- G51U A66U A111C — higher, -6.21
- G51U C53U C88G — higher, -2.23
- G51U C53U G61U U130A — higher, -3.08
- G51U C56A G63C C98U C99U C124A U131G — within 0.2 log units, -7.53
- G51U C62A G110C — lower, -8.04
- G51U C62G C124G — higher, -5.32
- G51U C62U U112G — higher, -5.35
- G51U C64U G117A U132A — higher, -5.22
- G51U C79A U87C U106A — higher, -2.68
- G51U C82U C85U C94U — higher, -2.49
- G51U C94G — higher, -4.19
- G51U C101U — higher, -4.07
- G51U C114U — higher, -5.14
- G51U G52C C80U — higher, -3.13
- G51U G52U C56A U78A — higher, -3.39
- G51U G58U G63A G117C — higher, -6.73
- G51U G63A G117U — higher, -5.99
- G51U G69U C88A C104U C123U — higher, -0.711
- G51U G71A C85A C101U — within 0.2 log units, -7.55
- G51U G71C U78C C114A — higher, -7.09
- G51U G77C — higher, -1.93
- G51U G93A — higher, -4.12
- G51U G117A — higher, -5.11
- G51U G120A — higher, -2.64
- G51U G122A — higher, -3.78
- G51U G135U — higher, -4.28
- G51U U54C U59G — higher, -3.68
- G51U U55A C72A U129A U133A — higher, -4.5
- G51U U78C — higher, -4.43
- G51U U78C A111C C123U — higher, -6.69
- G51U U106G G110U C124A — higher, -6.4
- G51U U129C — higher, -4.13
- G52A A68G — higher, -3.34
- G52A A74U — higher, -0.719
- G52A A84U C101U U106G U132A — higher, -1.69
- G52A A118G — higher, -0.546
- G52A C53U C114U — higher, -2.38
- G52A C56A U106A — higher, -1.08
- G52A C56U — higher, -0.699
- G52A C62A C123A — higher, -1.42
- G52A C62U G117U — higher, -2.86
- G52A C70U G120A U132A — higher, 0.354
- G52A C72U — higher, -0.913
- G52A C72U C85G — higher, -2.39
- G52A C72U U125A G128C — higher, -3.74
- G52A C73U — higher, -0.414
- G52A C86A A111C — higher, -3.28
- G52A C86G — higher, -0.287
- G52A G57A C82U C85A A121U — higher, -1.13
- G52A G57U C72U — higher, -0.842
- G52A G60A — higher, -0.303
- G52A G60C C70U U109A — higher, -5.53
- G52A G60C G61A — higher, -4.56
- G52A G63U — higher, -2.08
- G52A G69U C79G U87A A90U U116A — higher, -3.3
- G52A G71U U87A U131G — higher, -2.35
- G52A G93A U130G — higher, -1.22
- G52A G117C — higher, -2.77
- G52A G117U — higher, -0.533
- G52A G120A — higher, 0.47
- G52A G122A C124U — higher, 0.227
- G52A U78A — higher, -0.123
- G52A U78C — higher, -0.748
- G52A U78G — higher, -0.374
- G52A U87C — higher, 0.43
- G52A U87C C99U — higher, -3.97
